# Experimental data reported in patent publication US20150037339A1 (Regeneron, published 2015).
# T1: Activin A (human, UniProt P08476 311-426)
# T1 construct: Homodimer of two βA subunits; bought from R&D Systems (#338-AC); also called inhibin-βA dimer; human Activin A
# T1 sequence: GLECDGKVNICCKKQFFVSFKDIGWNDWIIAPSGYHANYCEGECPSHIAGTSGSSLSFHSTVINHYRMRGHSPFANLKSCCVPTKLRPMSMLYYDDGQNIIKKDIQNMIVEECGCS
# T2: Activin B (human, UniProt P09529 293-407)
# T2 construct: Homodimer of two βB subunits; R&D Systems #659-AB
# T2 chain: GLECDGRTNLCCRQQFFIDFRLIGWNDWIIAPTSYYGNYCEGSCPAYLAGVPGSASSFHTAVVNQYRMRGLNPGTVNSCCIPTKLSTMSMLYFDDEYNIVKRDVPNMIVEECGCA
# B1: H4H10432P2 (antibody, human IgG4, V domains shown)
# VH: EVQLVESGGGLVQPGRSLTLSCAVSGFTFDDHAMHWVRQAPGKGLEWVSGISWNSVSIGYADSVKGRFTISRDNAKTSLYLQMNSLRVDDTALYYCVQDLNDILTGYPLFDFWGQGTLVTVSS
# VL: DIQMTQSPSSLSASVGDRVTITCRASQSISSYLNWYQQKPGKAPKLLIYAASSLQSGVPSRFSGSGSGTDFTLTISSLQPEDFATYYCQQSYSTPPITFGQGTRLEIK
# B2: H4H10440P2 (antibody, human IgG4, V domains shown)
# VH: EVQLVESGGGVVQPGGSLRLSCAASTFTFDDFAMHWVRQAPGKGLEWVSLITGDGGSTYYADPVKGRFTISRDNSKNSLYLQMNSLRTEDTALYYCVKDWWIAARPDYYYYGMDVWGQGTTVTVSS
# VL: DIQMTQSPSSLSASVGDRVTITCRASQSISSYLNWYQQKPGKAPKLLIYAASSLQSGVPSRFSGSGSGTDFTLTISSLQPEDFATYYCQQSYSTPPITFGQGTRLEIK
# B3: H4H10430P (antibody, human IgG4, V domains shown)
# VH: EVQLVESGGGLVQPGRSLRLSCKASGFAFDDFAMHWVRQAPGKGLEWVSGIVWNSGDIGYADSVKGRFTISRDNAKNSLYLQLNSLRTEDTALYFCVKDMVRGLMGFNYYGMDVWGQGTTVTVSS
# VL: EIVLTQSPATLSLSPGERATLSCRASQTISTYLVWYRQRPGQAPSLLIYDASNRATDIPARFSGSGSGTDFTLTISSLEPEDFAVYYCQQRSNWPITFGQGTRLEIK
# notes: also called H4H1430P; H4H10430P2
# B4: H4H10436P2 (antibody, human IgG4, V domains shown)
# VH: QVQLVESGGGVVQPGRSLRLTCVASGFTVSSYGMHWVRQAPGKGLEWVAVMFYDESKKYYADSVKGRFTISRDNSKNTLYLQMNSLRVEDTAVYYCARDEQLDFEYWGQGTLVTVSS
# VL: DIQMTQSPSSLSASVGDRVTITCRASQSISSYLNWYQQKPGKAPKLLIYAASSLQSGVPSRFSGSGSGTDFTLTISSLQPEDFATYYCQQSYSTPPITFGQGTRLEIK
# B5: H4H10429P (antibody, human IgG4, V domains shown)
# VH: QVQLVESGGGVVQPGRSLRLSCVASGFTVSSYGIHWVRQAPGKGLEWVSVIWYDGRNKDYADSVKGRFTISRDNSKNTVYLEMKGLRAEDTALYYCARDKTGDFDSWGQGTLVTVSS
# VL: DIQMTQSPSSLSASVGDRVTITCRASQNINSFLSWYQQKPGKAPKFLIYDASSIQSGAPSRFSGSGSGTDFTLTISSLQPEDFATYYCQQSYSSPFTFGQGTKLEIK
# Target: T1, Activin A
# Experiment: Octet cross-competition; binder on anti-hFc tip; 50 nM hActivin A pre-bound with 1 uM Control 1 (col 10); black box
# Description: (§1) No. 8,309,082) and Control 3 (MAB3381, available from R&D Systems, Inc., Minneapolis, Minn.) were also included in the assays. All assays were performed at 25° C. with a microtiter plate shaking rate of 1000 rpm in Octet HBST buffer (0.01 M HEPES pH7.4, 0.15M NaCl, 3 mM EDTA, 0.05% v/v Surfactant P20, 0.1 mg/mL BSA) according to manufacturer's instructions (ForteBio Corp., Menlo Park, Calif.). […] Any remaining anti-hFc binding sites on the tips were blocked by incubating the tips in a 50 ug/mL solution of irrelevant antibody for 5 minutes.
row,binding response,Binder
1,0.15,B1
2,0.13,B2
3,0.2,B3
4,0.16,B4
5,0.16,B5

# Target: T1, Activin A
# Experiment: SPR, captured mAb, 37C; no dissociation observed, kd fixed
# Description: (§2) Antibody-antigen association was monitored for 240 seconds while dissociation in buffer was monitored for 600 seconds. Kinetic association and dissociation rate constants were determined by processing and fitting the data using Scrubber software version 2.0c. Binding equilibrium dissociation constants (KD) and dissociative half-lives (t_{1/2}) were then calculated from the kinetic rate constants as: KD (M)=kd/kₐ and t_{1/2} (min)=[ln 2/(60*kd)]. (NB=no binding observed under the conditions used; NT=not tested).
row,koff [s⁻¹],Binder
1,≤ 5e-05,B1
2,≤ 5e-05,B4
3,≤ 5e-05,B5

# Target: T1, Activin A
# Experiment: Octet cross-competition; binder on anti-hFc tip; 50 nM hActivin A pre-bound with 1 uM H4H10446P2 (col 1); white box
# Description: as §1
row,binding response,Binder
1,1.36,B1
2,1.17,B2
3,1.55,B3
4,1.22,B4
5,1.24,B5

# Target: T1, Activin A
# Experiment: Octet cross-competition; binder on anti-hFc tip; 50 nM hActivin A pre-bound with 1 uM H4H10423P (col 4); black box
# Description: as §1
row,binding response,Binder
1,0.33,B3

# Target: T1, Activin A
# Experiment: Octet cross-competition; binder on anti-hFc tip; 50 nM hActivin A pre-bound with 1 uM Control 3 (col 11); black box
# Description: as §1
row,binding response,Binder
1,-0.05,B1
2,-0.05,B2
3,-0.03,B3
4,-0.04,B4
5,-0.01,B5

# Target: T1, Activin A
# Experiment: Octet cross-competition; binder on anti-hFc tip; 50 nM hActivin A pre-bound with 1 uM H4H10468P2 (col 2); white box
# Description: as §1
row,binding response,Binder
1,1.58,B1
2,1.37,B2
3,1.84,B3
4,1.32,B4
5,1.37,B5

# Target: T1, Activin A
# Experiment: Octet cross-competition; binder on anti-hFc tip; 50 nM hActivin A pre-bound with 1 uM H4H10423P (col 4); white box
# Description: as §1
row,binding response,Binder
1,1.32,B1
2,1.22,B2
3,1.41,B4
4,1.39,B5

# Target: T1, Activin A
# Experiment: Octet cross-competition; binder on anti-hFc tip; 50 nM hActivin A pre-bound with 1 uM H4H10432P2 (col 7); black box
# Description: as §1
row,binding response,Binder
1,0.27,B2
2,0.26,B3
3,0.23,B4
4,0.26,B5

# Target: T1, Activin A
# Experiment: Octet cross-competition; binder on anti-hFc tip; 50 nM hActivin A pre-bound with 1 uM H4H10442P2 (col 3); white box
# Description: as §1
row,binding response,Binder
1,1.63,B1
2,1.4,B2
3,1.76,B3
4,1.39,B4
5,1.4,B5

# Target: T1, Activin A
# Experiment: SPR, captured mAb, 37C
# In short: (§3)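 Association was monitored for 240 s and dissociation in buffer for 600 s. Rate constants came from kinetic fitting; KD was calculated as kd/ka and dissociative half-life as ln2/(60*kd), in minutes.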
Activin A-20 nM (RU),Kd [pM],kon [M⁻¹ s⁻¹],t1/2 [min],koff [s⁻¹],Binder
25.1,≤ 2.18,2.3e+07,≥ 231,–,B1
15.3,51.5,6.37e+06,35.2,0.000328,B2
25,3.97,3.8e+07,76.5,0.000151,B3
29.4,≤ 3.35,1.49e+07,≥ 231,–,B4
31.4,≤ 3.75,1.33e+07,≥ 231,–,B5

# Target: T2, Activin B
# Experiment: SPR, captured mAb, 37C
# In short: as §3
50 nM Ag Bound (RU),Kd [pM],koff [s⁻¹],kon [M⁻¹ s⁻¹],t1/2 [min],binding result,Binder
5.1,–,–,–,–,–,B1
20.9,3290,0.00419,1.28e+06,2.8,–,B2
3.6,–,–,–,–,no binding (tested: 50 nM),B3
38.1,139,0.00136,9.78e+06,8.5,–,B4
25.3,9980,0.0343,3.43e+06,0.3,–,B5

# Target: T1, Activin A
# Experiment: Octet cross-competition; binder on anti-hFc tip; 50 nM hActivin A pre-bound with 1 uM H4H10436P2 (col 8); black box
# Description: as §1
row,binding response,Binder
1,0.29,B1
2,0.32,B2
3,0.31,B3
4,0.34,B5

# Target: T1, Activin A
# Experiment: Octet cross-competition; binder on anti-hFc tip; 50 nM hActivin A pre-bound with 1 uM H4H10430P (col 5); black box
# Description: as §1
row,binding response,Binder
1,0.28,B1
2,0.29,B2
3,0.28,B4
4,0.65,B5

# Target: T1, Activin A
# Experiment: Octet cross-competition; binder on anti-hFc tip; 50 nM hActivin A mixed with 1 uM Isotype control 12 (-) (col 12); dark grey box
# Description: as §1
row,binding response,Binder
1,0.3,B1
2,0.28,B2
3,0.49,B3
4,0.28,B4
5,0.39,B5

# Target: T1, Activin A
# Experiment: SPR, captured mAb, 25C; no dissociation observed, kd fixed
# Description: as §2
row,koff [s⁻¹],Binder
1,≤ 5e-05,B1

# Target: T1, Activin A
# Experiment: Octet cross-competition; binder on anti-hFc tip; 50 nM hActivin A pre-bound with 1 uM H4H10429P (col 6); black box
# Description: as §1
row,binding response,Binder
1,0.32,B1
2,0.41,B2
3,0.62,B3
4,0.36,B4

# Target: T1, Activin A
# Experiment: SPR, captured mAb, 25C
# In short: as §3
Activin A-20 nM (RU),Kd [pM],kon [M⁻¹ s⁻¹],t1/2 [min],koff [s⁻¹],Binder
20.7,≤ 3.18,1.57e+07,≥ 231,–,B1
12.9,24.7,3.76e+06,124,9.28e-05,B2
19.4,3.52,4.75e+07,69,0.000167,B3
23.2,19,8.85e+06,68.7,0.000168,B4
24.9,8.17,7.82e+06,181,6.39e-05,B5

# Target: T2, Activin B
# Experiment: SPR, captured mAb, 25C
# In short: as §3
50 nM Ag Bound (RU),binding result,Kd [pM],koff [s⁻¹],kon [M⁻¹ s⁻¹],t1/2 [min],Binder
5.1,no binding (tested: 50 nM),–,–,–,–,B1
18.8,–,1090,0.00116,1.06e+06,10,B2
3.9,–,–,–,–,–,B3
32.8,–,55.4,0.000528,9.52e+06,21.9,B4
26.4,–,3750,0.0131,3.49e+06,0.9,B5

# Target: T1, Activin A
# Experiment: Octet cross-competition; binder on anti-hFc tip; 50 nM hActivin A pre-bound with 1 uM H4H10440P2 (col 9); black box
# Description: as §1
row,binding response,Binder
1,0.27,B1
2,0.31,B3
3,0.27,B4
4,0.29,B5

# Target: T1, Activin A
# Experiment: Octet cross-competition; binder on anti-hFc tip; 50 nM hActivin A mixed with 1 uM Isotype control 13 (-) (col 13); dark grey box
# Description: as §1
row,binding response,Binder
1,0.11,B1
2,0.11,B2
3,0.27,B3
4,0.14,B4
5,0.24,B5
